According to PMC7904604:

Target: GST-BLMP-1(ZnFs) (Caenorhabditis elegans, UniProt Q93560 508-642)
Assay: competition

Sequence of GST-BLMP-1(ZnFs) (Q93560 508-642): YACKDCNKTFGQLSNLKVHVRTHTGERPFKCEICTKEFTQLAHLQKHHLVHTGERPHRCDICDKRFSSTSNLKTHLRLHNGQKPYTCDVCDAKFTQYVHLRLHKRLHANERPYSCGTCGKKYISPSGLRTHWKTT

B1: non-specific sequence (dsDNA)
DNA 1: GGCTCTTCCGGTCGTGCAAGAGGAAATACAAAAAA
DNA 2: TTTTTTGTATTTCCTCTTGCACGACCGGAAGAGCC
Q: Does B1 bind?
A: no binding
